Measured values reported in US20070196883.

What was measured:
[1] = molecular target: GST-PIF (glutathione-S-transferase fusion of the C-terminal 77 amino acids of PRK2)
[2] = molecular target: GST-PIF mutant Asp978 to Ala
[3] = molecular target: GST-PIF mutant Asp978 to Ser
[4] = molecular target: GST-PIF mutant F974 to Ala
[5] = molecular target: GST-PIF mutant F977 to Ala
[6] = molecular target: GST-PIF mutant Y979 to Ala
[7] = molecular target: T1, Region B peptide (24 residue synthetic peptide corresponding to Region B of PIF)
T1 chain: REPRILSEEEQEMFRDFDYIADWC

[8] = molecular target: T2, D978A-Region B peptide
T2 chain: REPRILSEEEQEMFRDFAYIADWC

GST-PIF mutant F977 to Ala, sequence (chain, as listed by the source mutant): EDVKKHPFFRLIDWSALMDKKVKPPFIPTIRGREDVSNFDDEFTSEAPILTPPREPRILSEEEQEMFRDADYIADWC
GST-PIF mutant F974 to Ala, sequence (chain, as listed by the source mutant): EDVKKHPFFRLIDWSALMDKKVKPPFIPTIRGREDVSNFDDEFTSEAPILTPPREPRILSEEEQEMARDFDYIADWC
GST-PIF mutant Asp978 to Ser, sequence (chain, as listed by the source mutant): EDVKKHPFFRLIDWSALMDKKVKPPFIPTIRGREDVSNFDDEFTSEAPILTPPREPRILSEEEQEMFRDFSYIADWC
GST-PIF mutant Y979 to Ala, sequence (chain, as listed by the source mutant): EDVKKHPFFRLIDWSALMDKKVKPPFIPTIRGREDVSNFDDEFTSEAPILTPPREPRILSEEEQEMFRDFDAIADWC

B1: endogenous PDK1 of 293 cells (protein)
chain: MARTTSQLYDAVPIQSSVVLCSCPSPSMVRTQTESSTPPGIPGGSRQGPAMDGTAAEPRPGAGSLQHAQPPPQPRKKRPEDFKFGKILGEGSFSTVVLARELATSREYAIKILEKRHIIKENKVPYVTRERDVMSRLDHPFFVKLYFTFQDDEKLYFGLSYAKNGELLKYIRKIGSFDETCTRFYTAEIVSALEYLHGKGIIHRDLKPENILLNEDMHIQITDFGTAKVLSPESKQARANSFVGTAQYVSPELLTEKSACKSSDLWALGCIIYQLVAGLPPFRAGNEYLIFQKIIKLEYDFPEKFFPKARDLVEKLLVLDATKRLGCEEMEGYGPLKAHPFFESVTWENLHQQTPPKLTAYLPAMSEDDEDCYGNYDNLLSQFGCMQVSSSSSSHSLSASDTGLPQRSGSNIEQYIHDLDSNSFELDLQFSEDEKRLLLEKQAGGNPWHQFVENNLILKMGPVDKRKGLFARRRQLLLTEGPHLYYVDPVNKVLKGEIPWSQELRPEAKNFKTFFVHTPNRTYYLMDPSGNAHKWCRKIQEVWRQRYQSHPDAAVQ
[1]
  activation of GST-S473D-PKBα (Thr308 phosphorylation) by PDK1 associated with GST-PIF (0.5 µg): greatly activated a GST-A473D-PKBα mutant
[2]
  phosphorylation of PKBα at Ser473 (P-473 immunoblot): prevented the phosphorylation of PKBα at Ser473
[3]
  phosphorylation of PKBα at Ser473 (P-473 immunoblot): prevented the phosphorylation of PKBα at Ser473
[4]
  phosphorylation of PKBα at Ser473 (P-473 immunoblot): prevented the phosphorylation of PKBα at Ser473
[5]
  phosphorylation of PKBα at Ser473 (P-473 immunoblot): prevented the phosphorylation of PKBα at Ser473
[6]
  phosphorylation of PKBα at Ser473 (P-473 immunoblot): prevented the phosphorylation of PKBα at Ser473

B2: wild type GST-PDK1 (protein)
chain: B1 chain
[7]
  phosphorylation of PKBα at Ser473: The region B peptide converts the wild type GST-PDK1, but not the kinase dead GST-PDK1, into a kinase which can phosphorylate Ser473 (data not shown)

B3: His-PDK1 (Myc-PDK1 with an N-terminal hexahistidine sequence, from Sf21 insect cells) (protein)
chain: B1 chain
[8]
  phosphorylation of PKBα at Ser473 (P-473 immunoblot, 32P peptide mapping): far less effective at inducing this alteration in the specificity of PDK1
